Legend:
NIH 3T3 cells = experiment: Luciferase expression levels in transfected mammalian cells (luminescence of lysates); assay type: cell-based, murine; conditions: mammalian cell systems
Procedure: NIH 3T3 cells (murine […] fibroblasts) were grown to 80% confluence in 100 mm tissue culture plates. Cells were transfected with either pDC57 or pDC99 using Lipofectamine and PLUS reagents (Invitrogen).
(§1) Transfected NIH 3T3 cells prepared in Example 4 were lysed using a lysis buffer comprised of 25 mM Tris-phosphate (pH 7.8), containing 10% glycerol, 1% Triton X-100, 1 mg/ml BSA, 2 mM EGTA and 2 mM DTT. Cells were washed with 1× Phosphate Buffered Saline, and lysis buffer (1 mL) was added to surface of plate. Plate was incubated for 30 mins, and lysate was collected. Additionally, NIH 3T3 cells were transfected with pSV40-GL3, a construct containing wild type luciferase from Photinus pyralis, as per the method in Example 4 and lysed using the above method. As a negative control, untransfected NIH 3T3 cells were also lysed by the above method.
(§2) Cell lysates were diluted using lysis buffer, and added in triplicate to wells of a solid white 96-well plate (Costar). Added to cell lysates was a reagent containing 1 mM D-luciferin and 2 mM ATP in a buffer comprised of 25 mM Glycylglycine, 15 mM MgSO4, 4 mM EDTA, 15 mM Potassium phosphate pH 7.8, 1 mM DTT, and 1 mM Coenzyme A.
(§3) Luminescence was recorded using a Perkin-Elmer HTS7000 Plus Bio Assay Reader (200 ms integration time).

[1] = Thermal stability of modified Luciola cruciata luciferase protein versus wild type protein (residual luminescence of cell lysates after incubation); conditions: for stability of the protein relative to wild type: 37° C.
Procedure: as §1, §2, §3
Cell lysates from NIH 3T3 cells transfected with pDC99 and pSV40-GL3 (transfected according to method in Example 4), as well as untransfected cells were prepared as described in Example 5a. Luminescence of each sample was recorded as described in Example 5a to obtain a baseline value of enzyme activity. Portions of each sample were then incubated in water baths at 37° C., 42° C., and 55° C. A portion of each sample was also incubated at ambient room temperature (25° C.). At 1 hour and 2 hour intervals, aliquots of each temperature-incubation were removed and assayed for activity using the method described in Example 5a.

B1: modified luciferase: Luciola cruciata luciferase with Ser to Tyr change at position 286, amino acid sequence SEQ ID NO:4, encoded by codon optimized gene SEQ ID NO:3 (protein, listed as Luciola cruciata)
chain: MENMENDENIVVGPKPFYPIEEGSAGTQLRKYMERYAKLGAIAFTNAVTGVDYSYAEYLEKSCCLGKALQNYGLVVDGRIALCSENCEEFFIPVIAGLFIGVGVAPTNEIYTLRELVHSLGISKPTIVFSSKKGLDKVITVQKTVTTIKTIVILDSKVDYRGYQCLDTFIKRNTPPGFQASSFKTVEVDRKEQVALIMNSSGSTGLPKGVQLTHENTVTRFSHARDPIYGNQVSPGTAVLTVVPFHHGFGMFTTLGYLICGFRVVMLTKFDEETFLKTLQDYKCTYVILVPTLFAILNKSELLNKYDLSNLVEIASGGAPLSKEVGEAVARRFNLPGVRQGYGLTETTSAIIITPEGDDKPGASGKVVPLFKAKVIDLDTKKSLGPNRRGEVCVKGPMLMKGYVNNPEATKELIDEEGWLHTGDIGYYDEEKHFFIVDRLKSLIKYKGYQVPPAELESVLLQHPSIFDAGVAGVPDPVAGELPGAVVVLESGKNMTEKEVMDYVASQVSNAKRLRGGVRFVDEVPKGLTGKIDGRAIREILKKPVAKM
NIH 3T3 cells
  expression level compared to native luciferase: higher expression levels
[1]; after 1 hour
  stability of the protein relative to wild type: > 100 fold
[1]; after 2 hours
  stability of the protein relative to wild type: > 1000 fold
[1]; room temperature
  thermostability compared with wild-type protein: greater thermostability

From US8450054B2, “Modified Luciola cruciata luciferase gene and protein” (Marker Gene Technologies, Inc., priority 2008, dated 2013)
